Data as given in the RNAGym collection of RNA variant scans (doi:10.7554/elife.80360).

B1: Hairpin Ribozyme (parent)
chain: GUCCUCUUUCACGUGCGCGUGAAAGAGAGAAGUGAACCAGAGAAACACACGUUGUGGUAUAUUACCUGGUA

Variants of: B1
Assay: self-cleavage, relative activity (ratio to wild type); higher = more cleavage; co-transcriptional

Variant	self-cleavage
G54C A71C	0.961
G54C A71U	0.243
G57A C65G	0.291
G57A C65A	0.222
G57C U70G	0.119
A59C C66A	0.0564
U55A C65A	0.204
A59U U60G	0.172
A59U U60C	0.257
A59U U62A	0.326
A59U U62G	0.262
A59U U62C	0.185
U60C A61U	0.296
U55A C66U	0.258
U55A C66G	0.24
G54C G57A	0.0995
U53C A71G	1.05
U53C A71C	1.26
U58A C66G	0.165
U55G U67A	0.219
G56A A71C	0.404
U58C U67C	0.205
G57A U58G	0.123
G57A U58A	0.169

Variant	self-cleavage
G57A U58C	0.21
A59U A64C	0.149
A59U A64G	0.139
A59C A71U	0.156
G54A U60A	0.409
G54A U60C	0.912
U53G	0.86
U60C A64G	0.614
U55G A59G	0.139
U55G A59C	0.156
U55C U67C	0.172
U55C G57U	0.299
U53C U58G	0.948
G54U U62A	0.229
G54U U62G	0.166
U58A G69U	0.175
U53C U63A	0.177
U53C U63C	0.0362
U53C U63G	0.144
U58C C65A	1.11
U58C C65G	0.255
G57C U62C	0.15
G57C U62A	0.183
U58A U62C	0.12

Variant	self-cleavage
G54A U63A	0.209
A59G A61C	0.39
G56C A71C	0.315
G56C U67C	0.138
A59U U67C	0.11
U55G U58G	0.206
U55G A61U	0.0838
U55G A61C	0.21
G56C C66G	0.209
G56C C66U	0.199
G56C C66A	0.156
G54U G69U	0.182
G54U G69C	0.194
G57A C66U	0.2
G57A C66G	0.103
A59G A71G	0.0933
A59G A71U	0.106
G54C U55C	0.245
U58C A61U	0.38
U55G A71C	0.708
G54A U70A	0.409
G54A U70C	0.244
G54A U70G	0.387
G54C U67G	0.174

Variant	self-cleavage
U55A A61U	0.214
G56C U62C	0.244
U53G C66A	0.131
G56U G68U	0.276
U60C C66G	0.0763
A59C A64U	0.0804
U53C U55C	0.329
U53C U55G	0.306
U53C U55A	0.34
U53G C65U	0.413
U53G C65G	0.0347
U55C U60A	0.168
U55C U60G	0.347
G54A U62G	0.0558
G54A U62A	0.188
U55A G56A	0.168
G56C G69A	0.135
U58G U67G	0.173
U58C A64U	0.0829
U53C U70C	1.04
U53C U70G	0.765
U60C C65A	1.34
A59C U70G	0.141
A59C U70C	0.151

Variant	self-cleavage
U58G A59C	0.149
U58G A59U	0.242
U55C C65U	0.27
G57U A59U	0.411
G54U G56C	0.24
G54U G56A	0.114
G56A U62C	0.141
G56A U62A	0.182
U53G U62A	0.0694
G56C G68A	0.153
U55G U70C	0.264
U53C A61G	0.254
U53C A61U	0.377
G57C A71G	0.201
G57C A71U	0.157
G57C A71C	0.356
U55C U63C	0.233
G56A A64C	0.0783
G56A A64U	0.135
G56A A64G	0.12
G56C A64U	0.0562
A59G U70A	0.163
G56C C65A	0.274
G54C G69C	0.0871

Variant	self-cleavage
U55C G68C	0.159
U55C G68U	0.0915
U53C U62A	0.119
U55G G57U	0.222
A59C A61C	0.0887
A59C A61G	0.207
G56A U58C	0.162
G56A U58A	0.0823
G56A U58G	0.274
U58A U63A	0.14
G57A A64U	0.119
A59C U60C	0.167
U55G U62A	0.104
U55G U62C	0.161
U58C U60G	0.742
U58G G69U	0.113
U55C C66U	0.157
G54U U67G	0.171
A59C U63G	0.164
A59C U63C	0.199
G57A G68U	0.169
G57A G68C	0.207
A59U U70A	0.177
G56U A59G	0.238

Variant	self-cleavage
G56U A61U	0.124
G54A G57C	0.149
U55G C66A	0.201
G54A G56C	0.0439
G56U A64C	0.177
A59C U62C	0.0999
A59C U62G	0.123
A59G U67G	0.153
A59G U67A	0.311
G54C U63A	0.103
G54C U63C	0.099
G57C C65G	0.154
U58G C65A	0.816
U58G C65U	0.412
U58G G68C	0.178
U58G G68A	0.208
G54C G68U	0.158
G54C G68C	0.221
G56C U58A	0.2
G56C U58C	0.246
U58G C66G	0.379
U53G A64G	0.599
G56A C65A	0.097
G56A C65G	0.214

Variant	self-cleavage
U55G G56A	0.125
U58G U62G	0.304
G56U U62C	0.122
G56U U62A	0.186
U55A U58C	0.427
U55A U58G	0.183
G57A U70A	0.134
G56U C66A	0.208
U55G U60C	0.408
G54A C66A	0.229
G54A C66U	0.272
G57C G68A	0.195
G57C G68C	0.21
U55A U63A	0.0786
U55A U63C	0.106
A59G A64G	0.176
A59G A64C	0.273
G56C A61G	0.155
G57U U70C	0.075
U55A G68A	0.163
U58A C65G	0.0985
G56C U70A	0.272
G56C U70C	0.134
U55A A59U	0.205

Variant	self-cleavage
U53C G54C	0.546
U53C G54U	0.573
U58C A59G	0.272
U58C A59C	0.304
G56U U63A	0.157
U53C C66G	0.328
G57C A61G	0.0894
U58G A64G	0.341
U58G A64C	0.163
U58A A59C	0.252
U58A A59U	0.183
G54C A61G	0.0386
G54C A61U	0.105
U60A U63A	0.164
U60A U63C	0.151
U58G U63G	0.104
G56C G57A	0.115
U58C G69U	0.302
U55A U67C	0.149
U53G U70A	0.712
U53G U70C	0.783
U55G G68A	0.237
U55G G68C	0.251
G56C U60G	0.111

Variant	self-cleavage
G57C U63G	0.18
U55C A64U	0.154
G54A G68A	0.206
U55A U70C	0.311
U55A U70G	0.342
G57U A61C	0.0714
G54U G57U	0.282
G54U G57C	0.177
G54U G57A	0.164
G54C C65U	0.132
G54C C65G	0.151
G54C U62G	0.141
G56U U58A	0.0912
U58G U70G	0.575
G56U G57U	0.204
G56U G57A	0.222
G56U G57C	0.144
U53C G68U	0.361
U53C G68A	0.328
U53C G68C	0.267
U55G G69A	0.178
A59C U67C	0.123
A59C U67A	0.241
G54C U58G	0.272

Variant	self-cleavage
G54C U58C	0.478
G54C U58A	0.334
U53C G56A	0.211
U53C G56C	0.149
G57U G69A	0.149
G56C A59U	0.173
G57A A71C	0.4
G57A A71G	0.112
G57U A71G	0.254
U53G A71G	0.73
U58A U67G	0.135
G54U U55A	0.354
U53G U60G	0.704
G56A U67C	0.129
G56A U67G	0.104
U55A U60C	0.712
U53C G69U	0.378
A59U U63G	0.218
A59U U63A	0.206
A59G U62G	0.167
U55A A64U	0.302
U55G C65A	0.3
U55C A61G	0.181
G54A U67C	0.12

Variant	self-cleavage
G54A U67A	0.206
G54U A71G	0.552
G54U A71U	0.333
U60A G69C	0.336
U60A G69U	0.129
U60A G69A	0.183
G57U C66G	0
U58A A71G	0.768
G57A U67G	0.191
G57A U67C	0.123
G57A U60G	0.21
G54U A61C	0.152
A59G C65U	0.18
G57U U60G	0.177
G56A A59G	0.167
U60A U67A	0.198
U53C A59G	0.303
U55C U70G	0.203
G54A U55G	0.162
G54A U55A	0.39
U58A A64C	0.143
U58A A64U	0.237
A59G G69U	0.15
A59G G69A	0.125

Variant	self-cleavage
G57C U60C	0.156
G56C	0.156
G56A	0.174
G56U	0.157
G57C A64G	0.126
G57C C66A	0.15
G54U A59G	0.148
G56A U60A	0.121
G56A U60C	0.219
U55C U62G	0.132
G57C U58G	0.277
U60A U70A	0.61
U60A U70C	0.626
G54U C66G	0.181
A59U A61C	0.0374
A59U A61U	0.168
U58C A71C	1.21
G54C A64C	0.104
G54U A64U	0.114
G57U U62C	0.158
G54A A71U	0.309
G54A A71G	0.426
G54C C66G	0.237
U53G G69A	0.363

Variant	self-cleavage
U58G A61C	0.32
U58G A61G	0.111
A59U C65G	0.218
U53C A64G	0.616
G56U A71C	0.454
G56U A71U	0.177
A59G C66G	0.228
G54U U70C	0.569
G54U U70G	0.43
A59C G69A	0.19
A59C G69U	0.131
U53G U63A	0.13
U53G U63C	0.241
G57U G68C	0.211
G57U G68A	0.188
A59U A71G	0.156
A59U A71U	0.252
U53G G68A	0.179
G57A G69C	0.141
G57A G69U	0.121
G56A G69U	0.258
U55G U63A	0.346
